Consider 1 substance from patent JP2013230152A.

In assay [1] the target is 遺伝子型3aの単離物のE1E2. Briefly: cell-based or functional assay.
For assay [2], the target named is 遺伝子型5の単離物のE1E2(MAb AP33反応性). Kind of assay: cell-based or functional assay.
Assay [3] addresses 412〜423分枝ペプチド (Hepatitis C virus). Briefly: antibody titration on the 412-423 branched peptide (Figure 10).
The target in assay [4] is H77 E1E2突然変異型W420A (Hepatitis C virus genotype 1a, strain H77) (UniProt P27958). Kind of assay: GNA capture EIA, mutant E1E2 from HEK293T cells.
Assay [5] concerns the target H77 E1E2突然変異型Q412A (Hepatitis C virus genotype 1a, strain H77) (UniProt P27958). Briefly: GNA capture EIA, mutant E1E2 from HEK293T cells.
Assay [6] has as its target H77 E1E2突然変異型G418A (Hepatitis C virus genotype 1a, strain H77) (UniProt P27958). Briefly: GNA capture EIA, mutant E1E2 from HEK293T cells.
Assay [7] has as its target H77 E1E2突然変異型L413A (Hepatitis C virus genotype 1a, strain H77) (UniProt P27958). Kind of assay: GNA capture EIA, mutant E1E2 from HEK293T cells.
Assay [8] addresses H77 E1E2突然変異型N415A (Hepatitis C virus genotype 1a, strain H77) (UniProt P27958). Kind of assay: GNA capture EIA, mutant E1E2 from HEK293T cells.

Where only a bound is given, the exact number is not on record here.

モノクローナル抗体AP33 (antibody): the IC 50(HCV pp 中和) in assay [1] worked out at 22 µg/mL; in assay [2], 0.6 µg/mL. For the same substance, in assay [3], the concentration for 50% binding, how much lower than that of MAb 3/11 was greater than 10. The decrease of binding compared with wild type in assay [4], in assay [6], in assay [7] and in assay [8] was greater than 75% each time. Moreover, the increase of binding compared with wild type H77 in assay [5] came out at 50%.
